Experimental data reported in US10829756B2, “Discovery of enzymes from the alpha-keto acid decarboxylase family” (Regents of the University of California, priority 2015, dated 2020).
Where “and” joins values, the source holds several entries; their conditions need not be identical. Equal entries are not always repeated.

Tests used:
[1] = In vitro steady-state kinetics of purified 2-ketoacid decarboxylases (ADH/NADH-coupled), C8 substrate; type: biochemical; conditions: kcat/KM on C8
Description: For the native KIVD and KIVD_VLV mutant, 2 ml overnight cultures of XL1B cells were transformed with pQE9 containing N-terminal his-tagged KIVD enzymes and grown in Terrific Broth (BP biomedical, Cat#3046-042) with 50 μg/mL of carbenicillin. (Fisher scientific, Cat# BP2648-5) For the GEOs, 2 ml overnight cultures of BLR cells were transformed with pet29b+ plasmid containing N-terminal his-tagged GEOs, and grown in Terrific Broth with 50 μg/mL of kanamycin. (Fisher scientific, Cat# BP906-5) These cultures were diluted 1:1000 in 500 mL of Terrific Broth with 1 mM MgSO4, 1% glucose, and 50ug/mL of corresponding antibiotics, then grown at 37° C. for 24 hours. […] Protein concentrations were determined using a Synergy H1 spectrophotometer (Biotek) by measuring absorbance at 280 nm using their calculated extinction coefficients with ExPASy ProtParam Tool.^33 All other buffers and salts were purchased from Fisher Scientific unless otherwise specified.
The kcat and KM values of selective KIVD mutants were measured for the substrates: C3, C5, isoC5, and C8. […] Activity was measured at 0.005 mM to 10 mM substrates. […] Absorbance readings were taken every 1-minute at OD340 at 21° C. for 60 minutes using the Synergy H1. Kinetic parameters (kcat and KM) were determined by fitting initial velocity versus substrate concentration data to the Michaelis-Menten equation.

[2] = system: synthetic recursive+1 pathway; assay: In vivo alcohol production of the synthetic recursive+1 pathway (fermentation, GC-FID); type: cell-based, E. coli; conditions: for 1-Butanol production / 1-Ethanol production / 1-Heptanol production / 1-Hexanol production / 1-Octanol production / 1-Pentanol production / 1-Propanol production: forty hours, microaerobic, defined media
Description: The measured specificity and activity for each enzyme was used to select two candidates for further characterization of their ability to modulate alcohol production in vivo. The two enzymes with the highest activity and specificity (FIG. 4), KIVD_VLV and GEO 175, were tested for their ability to reprogram the synthetic recursive+1 pathway to produce long-chain alcohol products in vivo. The alcohol-producing biochemical pathway was adapted from a previous study used to synthesize alcohols of various lengths.^3,4 Starting from glucose, the aforementioned+1 pathway, involving LeuABCD, recursively elongates 2-ketoacids, starting with 2-ketobutyrate, into longer chained 2-ketoacids. These 2-ketoacids are then converted to aldehydes by ketoacid decarboxylases (native KIVD, KIVD_VLV, and GEO 175) and subsequently to alcohols by an alcohol dehydrogenase. Carbon flux through this alcohol synthesizing biochemical pathway is enhanced by overexpressing thrABC, ilvA, LeuABCD, and ADH6 on inducible plasmids transformed into E. coli.^3 The effects of overexpression were furthermore supported and maintained by knocking out the threonine exporter enzyme RhtA and the primary DNA recombination degradation enzyme RecA. The enzyme AdhE was also knocked out, which helps raise long chain alcohol production by eliminating a competing pathway where acetyl-CoA is directly converted to ethanol.^19
Genes were removed from the ATCC 98082 ΔrhtA strain genome using P1 transduction from the Keio collection as previously.^32 The aldehyde-alcohol dehydrogenase gene (adhE) was knocked out to eliminate ethanol production from acetyl-coA. In all strains, recA was knocked out to prevent recombination between the genome and plasmids, thereby stabilizing the transformants. Primers used to target recA for knockout were designed based on the Keio collection (Genobase, ecoli.aist-nara.ac.jp) and ordered from Integrated DNA Technologies.
For n-alcohol production, strains of ST128 were transformed with pZS_thrO, pZAlac_ilvABSleuA, and pZE_LeuA*BCDK*A6 containing various kivd mutations. Fermentation conditions were adapted from those in previous works,^3,4 with the following changes: 20 mL of medium was used, with 100 μg/mL ampicillin, […] kanamycin, and 100 μg/mL spectinomycin added. Cells were grown to an optical density at 600 nm of ˜0.6, followed by induction with 0.1 mM isopropyl-b-D-thiogalactoside (IPTG). After fermentation, cells were centrifuged for 15 minutes at 4000×g and 4° C. The supernatant was split into two fractions for analysis, 5 mL for short chain alcohols (ethanol, 1-propanol, and 1-butanol), and 15 mL for long chain alcohols (1-pentanol, 1-hexanol, 1-heptanol, and 1-octanol). Long chain alcohols were extracted from the 15 mL fraction by 3 mL n-hexane prior to analysis. GC-FID analysis was performed as previously described.^4

B1: GEO175: native enzyme from Streptomyces sp. C, predicted protein with no known function, 2-ketoacid decarboxylase, SEQ ID NO:2 (protein)
chain: MRTVRESALDVLRARGMTTVFGNPGSTELPMLKQFPDDFRYVLGLQEAVVVGMADGFALASGTTGLVNLHTGPGTGNAMGAILNARANRTPMVVTAGQQVRAMLTMEALLTNPQSTLLPQPAVKWAYEPPRAADVAPALARAVQVAETPPQGPVFVSLPMDDFDVVLGEDEDRAAQRAAARTVTHAAAPSAEVVRRLAARLSGARSAVLVAGNDVDASGAWDAVVELAERTGLPVWSAPTEGRVAFPKSHPQYRGMLPPAIAPLSRCLEGHDLVLVIGAPVFCYYPYVPGAHLPENTELVHLTRDADEAARAPVGDAVVADLALTVRALLAELPAREAAAPAARTARAESTAEVDGVLTPLAAMTAIAQGAPANTLWVNESPSNLGQFHDATRIDTPGSFLFTAGGGLGFGLAAAVGAQLGAPDRPVVCVIGDGSTHYAVQALWTAAAYKVPVTFVVLSNQRYAILQWFAQVEGAQGAPGLDIPGLDIAAVATGYGVRAHRATGFGELSKLVRESALQQDGPVLIDVPVTTELPTL
modifications: Streptomyces sp. C
catalytic efficiency on C8 lower than native KIVD [1]: 2 fold
drop of overall alcohol production from that obtained with KIVD [2]: ~10 fold
heptanol share of alcohol production [2]: 50%
hexanol share of alcohol production [2]: 29%
major alcohol product [2]: heptanol (C7) and 1-heptanol
pentanol share of alcohol production [2]: 16%
1-Butanol production [2]: 19 mg/L
1-Ethanol production [2]: no ethanol or propanol production is observed
1-Heptanol production [2]: 274 mg/L
1-Hexanol production [2]: 160 mg/L
1-Octanol production [2]: 10 mg/L
1-Pentanol production [2]: 88 mg/L
1-Propanol production [2]: no ethanol or propanol production is observed
1-Butanol production ([2]; listed as GEO 175): 19 ± 2 mg/L
1-Heptanol production ([2]; listed as GEO 175): 274 ± 19 mg/L
1-Hexanol production ([2]; listed as GEO 175): 160 ± 18 mg/L
1-Octanol production ([2]; listed as GEO 175): 10 ± 1 mg/L
1-Pentanol production ([2]; listed as GEO 175): 88 ± 12 mg/L
long chain (≥C5) alcohols produced ([2]; sum of long chain alcohols): 522 mg/L

B2: Native KIVD: ketoisovalerate decarboxylase used in the current synthetic recursive+1 pathway, SEQ ID NO:1 (protein, listed as Lactococcus lactis)
chain: MYTVGDYLLDRLHELGIEEIFGVPGDYNLQFLDQIISRKDMKWVGNANELNASYMADGYARTKKAAAFLTTFGVGELSAVNGLAGSYAENLPVVEIVGSPTSKVQNEGKFVHHTLADGDFKHFMKMHEPVTAARTLLTAENATVEIDRVLSALLKERKPVYINLPVDVAAAKAEKPSLPLKKENSTSNTSDQEILNKIQESLKNAKKPIVITGHEIISFGLEKTVSQFISKTKLPITTLNFGKSSVDEALPSFLGIYNGKLSEPNLKEFVESADFILMLGVKLTDSSTGAFTHHLNENKMISLNIDEGKIFNESIQNFDFESLISSLLDLSEIEYKGKYIDKKQEDFVPSNALLSQDRLWQAVENLTQSNETIVAEQGTSFFGASSIFLKPKSHFIGQPLWGSIGYTFPAALGSQIADKESRHLLFIGDGSLQLTVQELGLAIREKINPICFIINNDGYTVEREIHGPNQSYNDIPMWNYSKLPESFGATEERVVSKIVRTENEFVSVMKEAQADPNRMYWIELILAKEDAPKVLKKMGKLFAEQNKS
overall alcohol production [2]: 4.0 g/L
short alcohols (C2-C4) share of total alcohol production [2]: 82%
1-Butanol production [2]: 1964 ± 24 mg/L
1-Ethanol production [2]: 652 ± 32 mg/L
1-Heptanol production [2]: 20 ± 3 mg/L
1-Hexanol production [2]: 75 ± 6 mg/L
1-Octanol production [2]: not observed
1-Pentanol production [2]: 594 ± 20 mg/L
1-Propanol production [2]: 693 ± 4 mg/L
